PMC8354326

How the values were obtained:
[1] = biological target: PGT145; assay: ELISA; conditions: parent: 1.0
[2] = biological target: 2G12; assay: ELISA; conditions: parent: 1.0

Row | Substance | ratio to parent [1] | ratio to parent [2]
1 | AMC008 SOSIP.v4.2 Env trimer D620N | 1.5 | 0.9
2 | AMC008 SOSIP.v4.2 Env trimer E662A | 1.1 | 0.9
3 | AMC008 SOSIP.v4.2 Env trimer K232T | 1 | 0.9
4 | AMC008 SOSIP.v4.2 Env trimer K232T; K236T | 0.9 | 0.9
5 | AMC008 SOSIP.v4.2 Env trimer K236T | 1 | 0.9
6 | AMC008 SOSIP.v4.2 Env trimer N88Q | 0.8 | 0.8
7 | AMC008 SOSIP.v4.2 Env trimer N611Q | 0.8 | 0.8
8 | AMC008 SOSIP.v4.2 Env trimer N616Q | 0.9 | 0.9
9 | AMC008 SOSIP.v4.2 Env trimer N624D | 0.9 | 0.8
10 | AMC008 SOSIP.v4.2 Env trimer N637Q | 0.8 | 0.9
